How the values were obtained:
B. subtilis IHA01 = experiment: α-Olefin production in Bacillus subtilis by heterologous expression; assay type: cell-based; conditions: 0.05% stearic acid, versus vector only control
Description: Genomic DNA encoding Jeotgalicoccus ATCC 8456_orf880 was cloned into the BamHI and XbaI sites of vector pHT01 under the control of the Pgrac promoter. B. subtilis IHA01 (lacA::spec leuB8 metB5 r(−)m(+) Sp, obtained from Bacillus Genetic Stock Center, Columbus, Ohio, strain number BGSC 1A785) was transformed with the resulting vector. The B. subtilis cells were grown at 37° C. in minimal medium supplemented with 2% glucose, 0.3 mM leucine, 0.3 mM methionine, and 10 mg/L chloramphenicol. When the cultures reached an OD600 of 0.8 to 1.0, 1 mM IPTG was added (to induce expression of orf880) along with 0.5 mM 5-amino laevulinic acid (as a precursor for heme biosynthesis) and 0.05% stearic acid (as a substrate for ORF880). The temperature was shifted to 25° C. and after growth for additional 18-24 h at 25° C., cells from a 1 mL culture were pelleted, resuspended in 100 μL methanol, sonicated for 1 h, and extracted with 300 μL ethyl acetate. 300 μL of water was added before separating the organic layer by centrifugation at 15,000 rpm for 5 min. The solvent layer was analyzed by GC-MS.
Genomic DNA encoding Corynebacterium efficiens YS-134 orfCE2459 was cloned into the BamHI and XbaI sites of vector pHT01 under the control of the Pgrac promoter and transformed into B. subtilis IHA01 cells. The resulting cells were grown, extracted, and analyzed as described in Example 9.

E. coli MG1655 ΔfadD = experiment: α-Olefins from glucose by expression of orf880 in E. coli MG1655 ΔfadD; assay type: cell-based; conditions: glucose (1%, w/v) only carbon source, versus vector-only control
Description: The genomic DNA encoding ATCC 8456_orf880, which was codon-optimized for expression in E. coli (SEQ ID NO:4), was cloned into vector OP80 (pCL1920 derivative) under the control of the Ptrc promoter, and E. coli MG1655 ΔfadD was transformed with the resulting vector. The E. coli cells were grown at 37° C. in M9 mineral medium supplemented with 20 μg/mL uracil and 100 μg/mL spectinomycin. Glucose (1%, w/v) was the only source of carbon and energy. When the culture reached an OD600 of 0.8 to 1.0, IPTG (1 mM) and 0.5 mM delta-aminolaevulinic acid (heme biosynthesis precursor) were added. The temperature was shifted to 25° C. After growth for an additional 18 to 24 h at 25° C., the cells from 10 mL of culture were pelleted, resuspended in 1 mL methanol, sonicated for 30 min, and extracted with 4 mL hexane. After solvent evaporation, the samples were resuspended in 0.1 mL hexane and analyzed by GC-MS.

B1: ORF880: olefin-producing enzyme (fatty acid decarboxylase) from Jeotgalicoccus sp. ATCC 8456, SEQ ID NO:2 (protein)
chain: MATLKRDKGLDNTLKVLKQGYLYTTNQRNRLNTSVFQTKALGGKPFVVVTGKEGAEMFYNNDVVQREGMLPKRIVNTLFGKGAIHTVDGKKHVDRKALFMSLMTEGNLNYVRELTRTLWHANTQRMESMDEVNIYRESIVLLTKVGTRWAGVQAPPEDIERIATDMDIMIDSFRALGGAFKGYKASKEARRRVEDWLEEQIIETRKGNIHPPEGTALYEFAHWEDYLGNPMDSRTCAIDLMNTFRPLIAINRFVSFGLHAMNENPITREKIKSEPDYAYKFAQEVRRYYPFVPFLPGKAKVDIDFQGVTIPAGVGLALDVYGTTHDESLWDDPNEFRPERFETWDGSPFDLIPQGGGDYWTNHRCAGEWITVIIMEETMKYFAEKITYDVPEQDLEVDLNSIPGYVKSGFVIKNVREVVDRT
modifications: Jeotgalicoccus sp. ATCC8456
Question: Which “α-olefin produced from stearic acid” value (B. subtilis IHA01) does the source give for B1 here?
Answer: 1-heptadecene

Question: And the α-olefins produced (E. coli MG1655 ΔfadD)?
Answer: 1-pentadecene and heptadecadiene

From patent US8597922B2, “Methods and compositions for producing olefins” (LS9, Inc., priority 2007, dated 2013)
